# Test results from paper PMC3361975 (Biochemistry, 2012).
# Residue numbers refer to the chain shown, from its start. Names and notes keep the numbering of the source.
# B1: 17X-PTDH-R301A (phosphite dehydrogenase from Pseudomonas stutzeri WM88, 17X background, Arg301Ala) (enzyme, UniProt O69054 1-336, looked up)
# chain: MLPKLVITHRVHEEILQLLAPHCELITNQTDSTLTREEILRRCRDAQAMMAFMPDRVDADFLQACPELRVIGCALKGFDNFDVDACTARGVWLTFVPDLLTVPTAELAIGLAVGLGRHLRAADAFVRSGKFRGWQPRFYGTGLDNATVGFLGMGAIGLAMADRLQGWGATLQYHAAKALDTQTEQRLGLRQVACSELFASSDFILLALPLNADTLHLVNAELLALVRPGALLVNPCRGSVVDEAAVLAALERGQLGGYAADVFEMEDWARADRPQQIDPALLAHPNTLFTPHIGSAVRAVALEIERCAAQNILQALAGERPINAVNRLPKANPAAD
# B2: 17X-PTDH (thermostable phosphite dehydrogenase mutant TS-PTDH with the additional E175A mutation) (enzyme, Pseudomonas stutzeri WM88, UniProt O69054 1-336, looked up)
# chain: B1 chain with A301R
# Molecular target: the molecule itself
# Assay: SEC
protein,measurement,value
B1,stoichiometry N,2
B2,binding result,binds
